The values below come from the nanobody polyreactivity screen of Harvey et al. (2022).

The series in a line: yeast display, Sf9 membrane polyspecificity reagent, FACS + sequencing; frameworks hold sequencing errors. An outline of the steps:
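After 36–48 hours of galactose induction, yeast (Saccharomyces cerevisiae BJ5465) displaying a synthetic nanobody library were stained at 4 °C for 1 hour with 10% biotinylated, detergent-solubilized Sf9 membrane reagent. Streptavidin microbeads enriched the stained cells before FACS sorting into low and high (top ~1%) gates on anti-HA and streptavidin fluorescence. Each clone's polyreactivity label reflects its gate of origin.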
Take “QVQLVETGGGLVQAGGSLRLSCAASGFTFRRYTMGWYRQAPGKERELVAAISGRGGRTYYADSVKGRFTISRDNAKNTVDLQMNSLKPEDTAVYYCAADTPYCQSSKYDYWGQGNQVTVSS”: the “polyreactivity (PSR sort gate)” value is “high polyreactivity”.

Consider “QVQLVETGGGLVQAGGSLRLSCAASGFTFTVYATGWYRQAPGKERELVAAIRWSGGSTSYADSVKRRFTISRDNAKNTVYLQMNSLKPEDTAVYYCNARISDAHYQSNYFLVLYDYWGQGTQVTVSS”, for which the “polyreactivity (PSR sort gate)” value is reported as “low polyreactivity”.

On to “QVQLVETGGGLVQAGGSLRLSCAASGFTFYGYAMGWYRQAPGKERELVAAISSSGGRTYYADSVKGRFTISRDNAKNTVYLQMNSLKPEDTAVYYCAVDYYGKVGDDYLGQGTQVTVSS”, for which the “polyreactivity (PSR sort gate)” value was “low polyreactivity”.

On to “QVQLVETGGGLVQAGGSLRLSCAASGFTYRRYAMGWYRQAPGKERELVAAINWNGDSTYYADSVKGRFTISRDNAKNTVYLQMNSLKPEDTAVYYCNAGWYGGRYSKFDYWGQGTQVTVSS”, for which the “polyreactivity (PSR sort gate)” value is “high polyreactivity”.

For the sequence “QVQLVETGGGLVQAGGSLRLSCAASGGIFGRNAMGWYRQAPGKERELVASISKSGGSTYYADSVKGRFTISRDNAKNTVYLQMNSLKPEDTAVYYCAARYSYFNWDNYYWGQGTQVTVSS”, the “polyreactivity (PSR sort gate)” value is “high polyreactivity”.

“QVQLVETGGGLVQAGGSLRLSCAASGGIFSYAMVWYRQAPGKEMELVADINSDGSTTYADSVKGRFTISRDNAKNTVYLQMNRLKPEDTAVYFCAVDVSVNWPLLERYEYWGQGSQVTVSS”: the “polyreactivity (PSR sort gate)” value is on record as “low polyreactivity”.

Turning to “QVQLVETGGGLVQAGGSLRLSCAASGIIFREYAMGWYRQAPGKEMELVAAITRSGGSTNYADSVKGRFTISRDNAKNTVYLLMNSLKPEDTAVYYCASDYQRNDFRWYDYWGQGTLVTVSS”, the “polyreactivity (PSR sort gate)” value is given as “low polyreactivity”.

Consider “QVQLVETGGGLVQAGGSLRLSCAASGITFWYYAMGCDRQAPGKERELVAVISRGGSTYYADSVKGRFTISRDNAKNTVYLQMNSLKPEDTAVYYCAARPRWYTYNRQEYDYWGQGTQVTLSS”, for which the “polyreactivity (PSR sort gate)” value is on record as “high polyreactivity”.

Consider “QVQLVETGGGLVQAGGSLRLSCAASGITFYYYAMGWYRQAPGKERELVAAINSGGITNYADSVKGRFTLSRDIAKKTVYLQMNSLKPEDTAVYYCAASSGFRYRYGYWGQGTQVTVSS”, for which the “polyreactivity (PSR sort gate)” value is reported as “high polyreactivity”.

For the sequence “QVQLVETGGGLVQAGGSLRLSCAASGRIFGPNSKGWYRQAPGKEREFVASIRYSGGSTYYADSVKGRFTISRDYAKNTVYLQMHSLKPEDTAVYYCAARTVTLSYLYYYWGQGTHVTVSS”, the “polyreactivity (PSR sort gate)” value is “high polyreactivity”.

As for “QVQLVETGGGLVQAGGSLRLSCAASGRIFQWYAMGWYRQAPGKERELVAAINNGGSTNYADSVKGRFTISRDNAKNTVYLQMNSLKPEDTAVYYCAAELTFVAQGWFVTYDYWGQGTQVTVSS”, the “polyreactivity (PSR sort gate)” value is recorded as “high polyreactivity”.

For “QVQLVETGGGLVQAGGSLRLSCAASGRIFRGNTMGWYRQAPGKERELVAAISWRGGRTYYADSVKWRFTISRDNAKNTVYLQMISLKPEDTAVYYCNAVYFQTGVYGYGDYDSWGQGTQVTVSS”, the “polyreactivity (PSR sort gate)” value is recorded as “low polyreactivity”.

For the sequence “QVQLVETGGGLVQAGGSLRLSCAASGRIFRNNAMGWYRQAPGKERELVAGISSGGSTYYADSVKGRFTMSRDNAKKTVYLQMNNLKPEDTAVYFFAVVGSAYQSRYDYWGQGNQVTVSS”, the “polyreactivity (PSR sort gate)” value was “high polyreactivity”.

For the sequence “QVQLVETGGGLVQAGGSLRLSCAASGRIFVVYDMGWYRQAPGKERELVANITISGGRTYYADSVKGRFTISRDNAKNTVYLQMNSLKPEDTAVYYCAATSGALYYGYEYWGQGTQVTVSS”, the “polyreactivity (PSR sort gate)” value was “low polyreactivity”.

“QVQLVETGGGLVQAGGSLRLSCAASGRIFYYKAKGWYRQAPGKERELVASISWDASSTYYADSVKGRFTISRDNAKNTVYLQMNSLKPEDTAVYYCNIKHLYRQYDYWGQGTQVTVSS”: the “polyreactivity (PSR sort gate)” value is “low polyreactivity”.

For “QVQLVETGGGLVQAGGSLRLSCAASGRIFYYNAMGWYRQAPGKERELVAAITGSGGSTYYADSVKGRFTISRDNEMNTVYLQMNSLKPEDSAVYYCAAVNPYIRGRYDYWGQGTQVTVSS”, the “polyreactivity (PSR sort gate)” value is recorded as “high polyreactivity”.

Regarding “QVQLVETGGGLVQAGGSLRLSCAASGRTFHYNVMGWYRQAPGKERELVAAITNTGGSTYYADSVKGRFTISRDNAKNTVYLQMNSLKPEDTAVYYCAAVETLPFDWYYWRYDYWGQGTQVTVSS”, the “polyreactivity (PSR sort gate)” value is “low polyreactivity”.

For the sequence “QVQLVETGGGLVQAGGSLRLSCAASGRTFNVNVKGRYRQAPGKERELVAAINRRGNTYYADSVKGRFTISRDNAKNTVYLQMNSLKPEDTAVYYCAADYRRYGSYDYWGQGTQVTVSS”, the “polyreactivity (PSR sort gate)” value is listed as “low polyreactivity”.

With “QVQLVETGGGLVQAGGSLRLSCAASGRTFWTNAMGWYRQPPGKEREFVAAISWRGASTFYADSVKWRFTISRDNAKNTVYLQMNSLIPEDTAVFYCAAQSRTRSFYGKYDSWGQGNQVTVSS”, the “polyreactivity (PSR sort gate)” value is “low polyreactivity”.

Regarding “QVQLVETGGGLVQAGGSLRLSCAASGRTISVNAMVWYIQAPGKESELVAAISSGGGTNYADSVKGRFTISRDNAKNTVYFQMNSLKPEDTAVYYCAADSRPGKYYEDDYWGQGTQVTVSS”, the “polyreactivity (PSR sort gate)” value was “low polyreactivity”.

In the case of “QVQLVETGGGLVQAGGSLRLSCAASGSIAFNAMGWYTQAPGKERELVAAITWRVGSTYYADSVKGRFTISRDNAMNTVDLQMHSLKTEDTAVYYCAARRTAGAYYGYNYWGQGTQVTVSS”, the “polyreactivity (PSR sort gate)” value was “high polyreactivity”.

On to “QVQLVETGGGLVQAGGSLRLSCAASGSIFDGYAMGWYRQAPGKERDFVASIRFSTARTYYADSVKGRFTISRDNAKNTVYLQMNSLKPEDTAVYYCNAPQGFVWRYSSWGPYDYWGQGTQVTVSS”, for which the “polyreactivity (PSR sort gate)” value is “high polyreactivity”.

“QVQLVETGGGLVQAGGSLRLSCAASGSIFYRYAMGWYRQAPGKEREMVAAIRTRGGTYYADSVKGRFTISRDNAKNTVYLQMNSLKPEDTAVYYWNAVVPGCTAVDYDYWGQGTQVTVSS”: the “polyreactivity (PSR sort gate)” value is “high polyreactivity”.

For “QVQLVETGGGLVQAGGSLRLSCAASGSIFYTNAMGWYRQAPGKERELVAVITASGGSTYYADSVKGRFTISRDNAKNTVYLQMNSLKPEDTAVYYCAADPVFNYDYWGQGTQVTVSS”, the “polyreactivity (PSR sort gate)” value is given as “low polyreactivity”.

On to “QVQLVETGGGLVQAGGSLRLSCAASGSIFYVYAMGWYRQAPRKERELVAAINTSGGSTYADSVKGRFTISRDNAKNTDYLQMNSLKPEDTAVYYCAADGYYEYTWGEYDSWGQGTQVTVSS”, for which the “polyreactivity (PSR sort gate)” value is given as “low polyreactivity”.

As for “QVQLVETGGGLVQAGGSLRLSCAASGSTFESYAMGWYRQAPGKERELVASISRCGGTTFYADSVKVRFTISRDNAKNTVYLQMNSLKPEDTEVYYCAAKRRRLGGDYWGQGTQVTVSS”, the “polyreactivity (PSR sort gate)” value is recorded as “high polyreactivity”.

As to “QVQLVETGGGLVQAGGSLRLSCAASGSTFGTYAMGWDRQAPGKERELVAAISSGDSTTYADSVKGRFTISRDNAKNTVYLQMNSLKPEDTAVYYCAARTFLMRNGGYNYWGQGTQVTVSS”, the “polyreactivity (PSR sort gate)” value is on record as “low polyreactivity”.

For “QVQLVETGGGLVQAGGSLRLSCAASGSTFTSNAMGWYRPAPGKERELVAAIDSSDGITYYADSVKGRFTISRDNAKNTVYLQMNSLKPEDTAVYYCAAEDYEAGYDYWGQGTQVTVSS”, the “polyreactivity (PSR sort gate)” value is reported as “high polyreactivity”.

“QVQLVETGGGLVQAGGSLRLSCAASGSTMAYYTMGWYRQEPGKEREFVASINWGGTTTYYADSVKGRFTISRDNAKNTVYLQMNSLKPEDTAVYYCAALGLRWGRSGYYYEYYYWGQGTQVTVSS”: the “polyreactivity (PSR sort gate)” value is “high polyreactivity”.

As for “QVQLVETGGGLVQAGGSLRLSCAASGYTFRYYAMGWYRQAPGKERELVAAISRRGGSTSYADSVKGRFTISRDNAKNTVYLQMNSLKPEDTAVYYCAVYLGGVSPTYGYWGQGTQVTVSS”, the “polyreactivity (PSR sort gate)” value is “high polyreactivity”.

Take “QVQLVETGGGLVQAGGSLRLSCADSGRIFRYNAMGWYRHAHGKERELVAAITLSTGSTYYADSVKGRFTISRDNAKNTVYLQMNSLKPEDTAVYYCAARIDGRTYARRVYYWGQGTQVTLSS”: the “polyreactivity (PSR sort gate)” value is “high polyreactivity”.

Take “QVQLVETGGGLVQAGGSLRLSCAGSGHIFPTNARGWYRQSPWKARELVAVISESVGSTYYADSVKGRFTISRDNSKNTVYLQMNSLKPEDTAVYYCAKQSLYPSLDADYDYWGQGTQVNVSS”: the “polyreactivity (PSR sort gate)” value was “low polyreactivity”.

For “QVQLVETGGGLVQAGGSLRLSCAPSGRTLTYYAMGWYRQAPGKERELVAAIRHSAGSTYYADSVKVRFTISRDNAKNSVYLLMNSLKPEVTAVYYCAKKYYGHRYPSIYDYWGQGTQVTVSS”, the “polyreactivity (PSR sort gate)” value is reported as “high polyreactivity”.

With “QVQLVETGGGLVQAGGSLRLSCAPSGSIFRYNAMGWYRQAPGKEREFVAAISQSGSRTYYADSVKGRFTISRDNAKNTVYLQMNSLKPEDTAVYYCAKKYYGVKFYWGQGTQVTVSS”, the “polyreactivity (PSR sort gate)” value is given as “low polyreactivity”.

As to “QVQLVETGGGLVQAGGSLRLSCDASGSTFVRYVMGWYRQAPGKERELVAAISRRGGSTYYADSVKGRFTISRANAKNTVYLQMNSLKPEDNAVYYCAGRGGRYFPYHGTIRYDYWGQCTQVTVSS”, the “polyreactivity (PSR sort gate)” value is listed as “high polyreactivity”.

As to “QVQLVETGGGLVQAGGSLRLSSAASGRTFAYYAMGWYRQAPGKERELVAAISSGGGSTYYADSVKGRFTISRDNAKNTVYLQMNSVKPEDTAVYYCNKGFNYCGWFKKYGYWGQGTQVTVSS”, the “polyreactivity (PSR sort gate)” value is recorded as “high polyreactivity”.

For the sequence “QVQLVETGGGLVQEGGSLRISCAASGSLFDVYAMGWYRQAPGKERELVAAISSSGSTYYADSVKGRFTISRDNAKNTVYLQMNSLKTEDTAVYYCAADQADDDDYYYWGQGTQVTVSS”, the “polyreactivity (PSR sort gate)” value was “low polyreactivity”.

As for “QVQLVETGGRLVQAGGSLRLSCAASGITLPKYAMGWYRPAPGKERELVAAISRSSGRTYYADSVKGRFTISRDNAKNTVYLQMNSLKPEDTAVYYCAASHGGYITRYNYWGQGTQVTVSS”, the “polyreactivity (PSR sort gate)” value is “high polyreactivity”.

Consider “QVQLVETGRGLVQAGGSLRLSCAASGGTFVVYSMGWYRQAPGTERELVAAITWIGDSTYYADSVKRRFTISRDNAKNTVYVQMNSLNPEDTAVYYCNKAKLYLVGRARFQTNYGLYDFWGQVTQVTVSS”, for which the “polyreactivity (PSR sort gate)” value is reported as “low polyreactivity”.

In the case of “QVQLVETRGGLVQAGGSLRFSCAPSGRISLIYDMGWYRQAPAKERELVASITWSGDSTYYADSVKGRFTNSRDNAKNTVYLQMNSLKPVDTAVYYCAAVCWTYEYWEWYDYWGQVTQVTVSS”, the “polyreactivity (PSR sort gate)” value was “high polyreactivity”.
